Reference: the supplement of paper PMC12764529

Test: folding stability dG unfold (combined trypsin and chymotrypsin); higher = more stable
Protocol: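 Folding stability of de novo designed mini-proteins (<80 aa, no Cys; designed by TrROS, TrMRF, ProteinMPNN and the joint model) was measured by cDNA display proteolysis with trypsin and chymotrypsin. Each protease was used at 11 concentrations in a threefold dilution series plus a no-protease condition. K50 was inferred by Bayesian fitting of sequencing counts, and dG unfold was derived against a sequence-predicted unfolded-state K50 (Tsuboyama et al. method). Sequences shown include variable-length N-terminal GS-type padding (SAGGSAGG...) inside a display construct carrying a PA tag. Rows were kept only if the AF2 dimer inter-PAE was >15, to exclude likely homo-oligomers.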

Sequence | folding stability dG unfold
SAGGSAGGSAMTLRDIARELAEKHGEPYKIKISHPNGRKREFNPDDLDRIPPGPWEVEIERPSAGGSAGGSA [r18_394_TrROS] | < -1 kcal/mol
SAGGSAGGSAGGSKLPPGAKVKIRFPNNNKEHEIKSPEQIKTFEIDGREMKIRKIEVEDSAGGSAGGSAGGS [r4_214_TrROS] | < -1 kcal/mol
SAGMTPEELEAGRPVERTIPLEIQHPEGNPIATYNITGTLTMEELKKLKEEIREEAKKKGIPPNLNTSLSAG [r5_606_JUSTAS] | < -1 kcal/mol
SAGGSAGGSKILEIERDPEKGLVKITVPPDVPPNPHPRLLKVEPKNNKYIVTFPMSPSDEIELSAGGSAGGS [r20_37_JUSTAS] | < -1 kcal/mol
SAGGSAGGSAGGMELEVHYTPNGYHTAEIRDPNGKPVEIYFDSPEDAPKEAQKLAKELQSAGGSAGGSAGGS [r10_1066_TrROS] | < -1 kcal/mol
SAGGSAGGSAGGIYIPMDDLKKNGMSIEQFADKLGHPVEIEVERNEPGSPVFKIEPDAKSAGGSAGGSAGGS [r10_855_TrROS] | < -1 kcal/mol
SAGGSAGGSASAWEQYPNTTPGTTSKTDDVTVRTLTFPNPTTVVTVTEFPGGEVTVTTVPTPSAGGSAGGSA [r18_26_JUSTAS] | < -1 kcal/mol
SAGGSAGGSAGGSMKIIEVPGPPEEVIEKIKEENPNAKVLSVEEDPEGGVTFKIEIEEKSAGGSAGGSAGGS [r4_95_JUSTAS] | < -1 kcal/mol
SAGGSAGGRIRDPDGNPFKIKKVEPQPSPNGQPMIKFRYPDNGKEHTIPRDNLPPWLPDNAKPVSAGGSAGG [r6_371_TrROS] | < -1 kcal/mol
SAGGMDEEELRELLAEDDATVLTEDPDGLLVAFTLPDGTARVFPVPSRERLDRLIAEVPDATVTTLPASAGG [r13_600_JUSTAS] | < -1 kcal/mol
SAGGSAGGSAMSVSVSSPENAEKLAKEIKEKNPNEIPKITKGSGSNSYTLTLPSGKNIKVSSSAGGSAGGSA [r18_154_JUSTAS] | < -1 kcal/mol
SAGGSAGGSAGGMVTIETPDEKYEITPTPEDRVLTKVYKKGKEIIKTKDPNSDKTEILDESAGGSAGGSAGG [r7_683_JUSTAS] | < -1 kcal/mol
SAGGMRVDYKSGKVIPEKTITIERTFSPEVVKTEEDAIELAKQEAEEAGLKDIDLKVELEGDKITVVGSAGG [r13_130_JUSTAS] | < -1 kcal/mol
SAGGMVETTETVVEPGRIRVERRVTLPDGTEVEEVEEVPPAAGGVWEVRSRVRRGEGEEEVARREVAPSAGG [r13_728_JUSTAS] | < -1 kcal/mol
SAGGSAGGEKTASFKVKGNLVAKGVTTFYSPTSDEYTIETEIEKVPPGPKPEITPEEIAKNYLLSAGGSAGG [r6_148_JUSTAS] | < -1 kcal/mol
SAGGSAGGSAGGMEDVKLLSKSYIPETNELEVTVEIPGGELVNIPLKPGVTDEDVLKLISAGGSAGGSAGGS [r10_984_JUSTAS] | < -1 kcal/mol
SAGGSGTTSPVLVEETVFTDGSATYTRKKVELEEVERPPVPPVEIPEEAREAGLAGDYEAAEAILASAGGSA [r2_196_JUSTAS] | < -1 kcal/mol
SAGGSAGGSAGMTPLYFRVERVDPASGGSLEEVVEIDPAEREAVVEELRAVPGLVRVELVSAGGSAGGSAGG [r17_438_JUSTAS] | < -1 kcal/mol
SAGGSPKIQIDQYNPNDYYVRIEYPGNGNTHEIPFRGSKGELAKKLEDEAEEHNMPIDVEIYPPDDSAGGSA [r2_161_TrROS] | < -1 kcal/mol

Sequence | folding stability dG unfold
SSVKIEEKPLPDGTILVTITTPPENPEEVAEKVKEEVKAPVTVTSVEEVELEEGEKPLKVVKITIEVDKASA [r9_431_JUSTAS] | < -1 kcal/mol
SAGGSAGGSMTFKLKDGKVITYDPANPTLHFPGPPETIPTGGANIAQTIADLKAKGFDYEEVVESAGGSAGG [r6_340_JUSTAS] | < -1 kcal/mol
NWKILEEEPNPDNGKRVIVIEHEPDPENGQMNMPIELFDPKKGKPRRIPVRMDSPETMIDEIKDQLPPDLIS [r1_156_TrROS] | < -1 kcal/mol
SAGGSAGGSGMPVVLLEATFDPNNPGTTYRLTTVDPNTGGVAESEIPASEAEARGLGPLDVLESAGGSAGGS [r12_123_JUSTAS] | < -1 kcal/mol
SAGGSAGGSPSITIEKDKEKPVYKVTVYTPNGEKKVFENPEGKKVTTDSNGGEIYIDDVKINVSAGGSAGGS [r12_346_TrMRF] | < -1 kcal/mol
SAGGSAGGSPKEYYIRVKDPEKAKEIMKPLGWPIKPGDEFPIKDPEDILEKLPGIEGIEIHPVSAGGSAGGS [r12_571_TrROS] | < -1 kcal/mol
SAGPNFQIKKVEHKGGKIEIPIRLPNGRPFTARIKVEKRPDPDGNDRPRTKIEISEDALKEYIPPDLIKSAG [r5_462_TrROS] | < -1 kcal/mol
SSAEEVARARFEAAGWDWRPLARDPVKRTVRFEVRPPDRPPRLYEVVVDPSRDTVNLEEDPATGRVVVPGSA [r9_1119_JUSTAS] | < -1 kcal/mol
SAGGSAGGSAGAPDEPIQITMRLKYPDGQKREHNTPFPPGKDIEIKNMPPGAKIENIEITSAGGSAGGSAGG [r11_181_TrROS] | < -1 kcal/mol
SAGGSAGGSAMNVKFFKLSENELRIEYNEIEEFEDGSLSEEIKTEILKLNLPEDDKKVKELLSAGGSAGGSA [r18_215_JUSTAS] | < -1 kcal/mol
SAGGSAGGSAIKIPPGYWVRGEFPNVTRHIPIDDIDELKKTFPGNPIRDIEVYDPEDGKPISAGGSAGGSAG [r3_134_TrROS] | < -1 kcal/mol
SAGGSAGGSAGGIKPGDKVRIMQMDKNGEMRGPVEIDNVEDGKITIKLPPPYRIMIQPYSAGGSAGGSAGGS [r10_1257_TrROS] | < -1 kcal/mol
SAGGMKTIKRKSKFIKPGKGLSIDRTTELLPGGEVLEPLTFKNPKNGEKIKSFTIRIDPNGNETVENSAGGS [r16_239_JUSTAS] | < -1 kcal/mol
SAGGSAGGSAGGSTLEEIREMAKQGKKFKIRNPGNNQEHEIRPDDLDDFRGSPISIEPVSAGGSAGGSAGGS [r4_157_TrROS] | < -1 kcal/mol
SAGGSAGGSAGKKKPPPKVTLVIRVKMSPEEVKKLAELFPDAKVTVTYDEETGLLTVTFDSAGGSAGGSAGG [r17_254_TrROS_Hall] | > 6 kcal/mol
SAGGSAGGSAGGPYLRIKWKHPENGKTREIEIPFEGKPLEEIADNIKKEHGMTVTDIEPVSAGGSAGGSAGG [r7_590_TrROS] | < -1 kcal/mol
SAGGSAPPPKMKRIELKVEDPEHGYEVRVEVMIYPNDSISIQYESPNGKPLPKERAQKLLKELGIESAGGSA [r15_872_TrROS] | < -1 kcal/mol
DMDFKVEDIKVDPDDGKVKIEMPIPNPNMPIAIFAPNGKIKDVKWEHYKEDGRMKIEIPVKSPDEVRAFIFS [r1_138_TrROS] | < -1 kcal/mol
SAGGSAMVIEVEEEALSEEEAEEIKEEKLKEAKEKLPGEEPVELDIKVTVTVKEPEEKPYKKNILKSAGGSA [r15_663_JUSTAS] | < -1 kcal/mol

Sequence | folding stability dG unfold
SAGGSAGGSAEPDPSSPEPYEVLEVVPRTIVSRVEQPGNPQLLRQTVDVVIIKNPSNGLLDSAGGSAGGSAG [r3_391_JUSTAS] | < -1 kcal/mol
SAGGPNKKIKIVMDPDDPNMPMSEIANFMQKEGFEPVEMVPADNLPPEKAREEAEEEGKPVIEIPFNSAGGS [r16_94_TrROS] | < -1 kcal/mol
SAGGSAGGSTMEKLQDKAKELGPNVSVEPSQDGPDSIKITFDPDHPKKIKDIAKEYGIKVQIYSAGGSAGGS [r12_74_TrROS] | < -1 kcal/mol
SAGGSAGGGMITVPLSEEISMANLPEEERAAGEELGPGSVIRKLLEIKKYPVKPFRFIEKDKILSAGGSAGG [r6_547_JUSTAS] | < -1 kcal/mol
SAGGSAGGSAGGSNIKELAKELWDKNPGPRPIRFKGNGYKIRFQMPPEGRLRPVEIEKNSAGGSAGGSAGGS [r4_438_TrROS] | < -1 kcal/mol
SAGGSAGGSMELPSGVVVKSTSEDPAAKTVTVSFPSGAVYTLPLPDPNVSQPVTVKTPPGAGVSAGGSAGGS [r12_149_JUSTAS] | < -1 kcal/mol
SAGGSAGGVRVRVVYPDGEPIGEIDIQLPPEMPQDQRQVKELAENIASRFKENGRKVKVEIEPPSAGGSAGG [r6_884_TrROS] | < -1 kcal/mol
SSVNWKVLETKEEPETVVTLLENPENPELIVEVPVKRFEDPDSERREVTKTVWLPATGETLETEPAVIPLSA [r9_18_JUSTAS] | < -1 kcal/mol
SAGGSAGGSSMSFSFSERRDGKEYSVSVTTAVTPLTLPNGTLRTLTTPTTTVTDPSGKVLSTSSAGGSAGGS [r20_224_JUSTAS] | < -1 kcal/mol
SAGGSAGGSAGEITIRMPMPDPDGGRRRIQFTIEKIKLPPGQKIKIVSVGPNGSFTIKPKSAGGSAGGSAGG [r11_733_TrROS] | < -1 kcal/mol
SAGGSAMTLVEEVPVAPGTLVEAESIAVSPEGKIYRSRVEGLEPGRARVTVPVEELPGNLEDPELISAGGSA [r15_909_JUSTAS] | < -1 kcal/mol
SAGGSAGGSMVEEFETTEFSPPEPLVRVERLKKEIFTFPENSLSYKVTPVEERLVTPEEVAAESAGGSAGGS [r12_374_JUSTAS] | < -1 kcal/mol
SAGGSAGGSAGGPKIQIPVDSPEDAVDEARDWMEQQFGIDPEDMPINVHVNEDDGWLYIRSAGGSAGGSAGG [r7_387_TrROS] | < -1 kcal/mol
SAGMPRLVTVEMVVLRVVPVYDPEGKPVREEPREERRTRTAPLAEAQAEIDALPPDEEVTEILRVEPESAGG [r19_114_JUSTAS] | < -1 kcal/mol
SAGGSAGGSAGPLVLVKELKSSRPVFDKNGKLIGTKTEVLVEAELLAPPANPDDPRYKETSAGGSAGGSAGG [r11_131_TrMRF] | < -1 kcal/mol
SATTTTETLPDGGVLTTTTLPDGSPATGLIDPANGAPFTATHPNGLRTVWSQSPSGKVTTLSTTNVPPSSAG [r14_877_JUSTAS] | < -1 kcal/mol
SAGGSAGGSAGGPDIKEAKPGLYPDKPVIYFKLPDREVVLFPGPKERFVKFGDKVLKIPSAGGSAGGSAGGS [r10_559_TrMRF] | < -1 kcal/mol
SAGGSAGGSAGGLKIPKGYPWKLSHNNGKEREFKFDSLDDIKEELNVPIPPGRNIQIEPYSAGGSAGGSAGG [r7_223_TrROS] | < -1 kcal/mol
SAGGGSSMPRRRALPDGTALETTLGDSVATVRATRYVGDRPLETAERVLPDVPPDVDAEVDFDLPPGSAGGS [r8_155_JUSTAS] | < -1 kcal/mol
